B1: scFv; the commonest letter at each place (parent)
chain 1: EVKLDETGGGLVQPGRPMKLSCVASGFTFSDYWMNWVRQSPEKGLEWVAQIRNKPYNYETYYSDSVKGRFTISRDDSKSSVYLQMNNLRVEDMGIYYCTGSYYGMDYWGQGTSVTVS
chain 2: DVVMTQTPLSLPVSLGDQASISCRSSQSLVHSNGNTYLRWYLQKPGQSPKVLIYKVSNRFSGVPDRFSGSGSGTDFTLKISRVEAEDLGVYFCSQSTHVPWTFGGGTKLEIK

Columns and labels:
fluorescein = variants of: B1; assay: Kd (Tite-Seq); settings: with fluorescein; format: scFv 4-4-20, heavy + light
[1] = variants of: B1; assay: yeast surface expression (ratio to wild type); higher = more expressed; settings: format: scFv 4-4-20, heavy + light

| Variant | Kd (fluorescein) [µM] | yeast surface expression [1] |
| --- | --- | --- |
| chain 1 W108I G109F | 0.02 | 0.186 |
| chain 1 W108K G109L | ≥ 10 | 0.219 |
| chain 1 W108L G109R | ≥ 10 | 0.296 |
| chain 1 W108M | ≤ 0.000316 | 1 |
| chain 1 W108N G109N | ≥ 10 | 0.335 |
| chain 1 W108P G109N | ≥ 10 | 0.473 |
| chain 1 W108Q | 0.0233 | 0.506 |
| chain 1 W108Q G109E | ≥ 10 | 0.459 |
| chain 1 W108R | ≥ 10 | 0.455 |
| chain 1 W108S G109S | 5.96 | 0.37 |
| chain 1 W108T | 0.000399 | 0.775 |
| chain 1 W108V | ≤ 0.000316 | 0.831 |
| chain 1 Y32A | 0.00993 | 1.15 |
| chain 1 Y32A M34S | ≥ 10 | 0.769 |
| chain 1 Y32A M34V | 0.0434 | 0.941 |
| chain 1 Y32A V37Y | 0.205 | 1.23 |
| chain 1 Y32A W33I M34T | ≥ 10 | 0.444 |
| chain 1 Y32A W33S V37G | ≥ 10 | 0.472 |
| chain 1 Y32A W36N | ≥ 10 | 1.17 |
| chain 1 Y32C M34K | ≥ 10 | 1.04 |

| Variant | Kd (fluorescein) [µM] | yeast surface expression [1] |
| --- | --- | --- |
| chain 1 Y32C M34P | ≥ 10 | 0.562 |
| chain 1 Y32C M34T | ≥ 10 | 0.664 |
| chain 1 Y32C N35M | ≥ 10 | 0.536 |
| chain 1 Y32D | ≥ 10 | 1.04 |
| chain 1 Y32D N35Y | ≥ 10 | 0.498 |
| chain 1 Y32E V37Y | ≥ 10 | 0.806 |
| chain 1 Y32E W36N | ≥ 10 | 1.09 |
| chain 1 Y32E W36Q | 0.216 | 0.493 |
| chain 1 Y32F | 0.00352 | 0.989 |
| chain 1 Y32F M34F | 0.00561 | 0.862 |
| chain 1 Y32F M34Q | ≥ 10 | 0.502 |
| chain 1 Y32F V37C | 0.00142 | 0.914 |
| chain 1 Y32F W33Q | ≥ 10 | 1.23 |
| chain 1 Y32G M34E | ≥ 10 | 0.194 |
| chain 1 Y32G M34P | ≥ 10 | 0.545 |
| chain 1 Y32G N35V | ≥ 10 | 0.513 |
| chain 1 Y32G V37P | ≥ 10 | 0.972 |
| chain 1 Y32H | 0.0265 | 1.03 |
| chain 1 Y32H M34H | ≥ 10 | 0.674 |
| chain 1 Y32H M34Q | ≥ 10 | 0.862 |

| Variant | Kd (fluorescein) [µM] | yeast surface expression [1] |
| --- | --- | --- |
| chain 1 Y32H N35D | ≥ 10 | 0.772 |
| chain 1 Y32H N35E | ≥ 10 | 0.518 |
| chain 1 Y32H N35Q | ≥ 10 | 0.811 |
| chain 1 Y32H N35T | ≥ 10 | 0.813 |
| chain 1 Y32H V37T | ≥ 10 | 0.874 |
| chain 1 Y32H W36F | 0.676 | 0.839 |
| chain 1 Y32I M34A | ≥ 10 | 0.821 |
| chain 1 Y32I M34F | 5.66 | 0.871 |
| chain 1 Y32I M34S | ≥ 10 | 0.65 |
| chain 1 Y32K M34C | ≥ 10 | 0.91 |
| chain 1 Y32K M34F W36H | ≥ 10 | 0.381 |
| chain 1 Y32K N35R | ≥ 10 | 0.103 |
| chain 1 Y32K W33I | ≥ 10 | 0.763 |
| chain 1 Y32L V37R | ≥ 10 | 0.0981 |
| chain 1 Y32L W36F | ≥ 10 | 0.728 |
| chain 1 Y32L W36Q | ≥ 10 | 0.875 |
| chain 1 Y32L W36Y | 3.74 | 0.682 |
| chain 1 Y32M | 0.972 | 1.03 |

The next lines start with results.

| Kd (fluorescein) [µM] | Variant | yeast surface expression [1] |
| --- | --- | --- |
| 0.0221 | chain 1 W108K | 0.504 |
| ≥ 10 | chain 1 W108K G109H | 0.44 |
| ≤ 0.000316 | chain 1 W108L | 0.827 |
| ≥ 10 | chain 1 W108L G109I | 0.203 |
| 0.0944 | chain 1 W108M G109E | 0.408 |
| 0.031 | chain 1 W108N | 0.468 |
| ≥ 10 | chain 1 W108N G109P | 0.396 |
| 0.00272 | chain 1 W108P | 0.625 |
| 3.2 | chain 1 W108P G109A | 0.41 |
| ≥ 10 | chain 1 W108Q G109Q | 0.278 |
| 0.0158 | chain 1 W108S | 0.51 |
| ≥ 10 | chain 1 W108S G109N | 0.413 |
| ≥ 10 | chain 1 W108S G109R | 0.307 |
| ≤ 0.000316 | chain 1 W108Y | 0.963 |
| ≥ 10 | chain 1 Y32A M34E V37C | 0.299 |
| ≥ 10 | chain 1 Y32A W33C | 0.924 |
| 0.143 | chain 1 Y32C | 1.05 |
| ≥ 10 | chain 1 Y32C M34F | 0.872 |
| ≥ 10 | chain 1 Y32C M34Y | 0.843 |
| ≥ 10 | chain 1 Y32C V37Q | 0.692 |

| Kd (fluorescein) [µM] | Variant | yeast surface expression [1] |
| --- | --- | --- |
| ≥ 10 | chain 1 Y32C W36R | 0.506 |
| ≥ 10 | chain 1 Y32D M34Y | 0.756 |
| ≥ 10 | chain 1 Y32D W33E | 0.525 |
| ≥ 10 | chain 1 Y32D W33V | 0.594 |
| ≥ 10 | chain 1 Y32E | 0.927 |
| ≥ 10 | chain 1 Y32E M34I | 0.733 |
| ≥ 10 | chain 1 Y32E N35G | 1 |
| ≥ 10 | chain 1 Y32E N35S | 0.87 |
| ≥ 10 | chain 1 Y32E W33K | 0.742 |
| ≥ 10 | chain 1 Y32E W33T | 0.889 |
| ≥ 10 | chain 1 Y32E W36H | 0.342 |
| 0.0221 | chain 1 Y32F M34L | 0.781 |
| 0.0125 | chain 1 Y32F V37I | 0.835 |
| ≥ 10 | chain 1 Y32F W33Y | 0.757 |
| 1.63 | chain 1 Y32G | 0.961 |
| ≥ 10 | chain 1 Y32G M34C | 0.676 |
| ≥ 10 | chain 1 Y32G M34N | 0.613 |
| ≥ 10 | chain 1 Y32G W33A | 0.708 |
| ≥ 10 | chain 1 Y32G W33N | 0.799 |
| ≥ 10 | chain 1 Y32G W36H | 0.209 |

| Kd (fluorescein) [µM] | Variant | yeast surface expression [1] |
| --- | --- | --- |
| ≥ 10 | chain 1 Y32H V37Q | 0.372 |
| ≥ 10 | chain 1 Y32I | 0.938 |
| ≥ 10 | chain 1 Y32I N35P | 0.0981 |
| ≥ 10 | chain 1 Y32I W33T N35A | 0.824 |
| ≥ 10 | chain 1 Y32I W36G | 0.465 |
| 0.0391 | chain 1 Y32I W36P | 0.723 |
| ≥ 10 | chain 1 Y32I W36Y | 0.612 |
| 1.67 | chain 1 Y32K | 0.804 |
| ≥ 10 | chain 1 Y32K V37R | 1.18 |
| ≥ 10 | chain 1 Y32K V37S | 0.852 |
| ≥ 10 | chain 1 Y32K V37T | 0.623 |
| ≥ 10 | chain 1 Y32K W33E | 0.552 |
| ≥ 10 | chain 1 Y32K W33T | 0.694 |
| 0.435 | chain 1 Y32L | 0.893 |
| ≥ 10 | chain 1 Y32L M34A | 0.634 |
| ≥ 10 | chain 1 Y32L M34T W36I | 0.622 |
| ≥ 10 | chain 1 Y32L N35F | 0.363 |
| ≥ 10 | chain 1 Y32M M34Q | 0.437 |

Source: the FLAb antibody collection (doi:10.7554/elife.23156)
